Here are results for 13 substances from patent US9260500B2, “Peptide and use thereof” (Takeda Pharmaceutical Company Limited, priority 2009, dated 2016).

Non-standard residues stand in square brackets, D forms with d. Primed or numbered codes have the meaning given here. No end group written: not given here. *: point of attachment. 4‑Guanidinomethylbenzoyl = N=C(N)NCc1ccc(C(=O)*)cc1; βHOAla = beta-homoalanine (β-HOAla), D- or L-form; Cyclohexanecarbonyl = O=C(C1CCCCC1)*; Ala(cPr) = N[C@@H](CC1CC1)C(=O)O; 3Pal = N[C@@H](Cc1cccnc1)C(=O)O; 4Pal = N[C@@H](Cc1ccncc1)C(=O)O; d(pGlu) = O=C1CC[C@H](C(=O)O)N1; Cha = N[C@@H](CC1CCCCC1)C(=O)O; dIva = CC[C@@](C)(N)C(=O)O; dPip = O=C(O)[C@H]1CCCCN1; hSer = N[C@@H](CCO)C(=O)O; Isobutyryl = CC(C)C(=O)*; Nle = CCCC[C@H](N)C(=O)O; PEG2′ = not defined here; Abu = CC[C@H](N)C(=O)O; Aib = CC(C)(N)C(=O)O; Bz = O=C(c1ccccc1)*

Test [1] has as its target T1, human Y2 receptor (Homo sapiens, UniProt P49146).
T1 construct: expressed in transfected cells; membrane fraction
T1 sequence (P49146 1-381): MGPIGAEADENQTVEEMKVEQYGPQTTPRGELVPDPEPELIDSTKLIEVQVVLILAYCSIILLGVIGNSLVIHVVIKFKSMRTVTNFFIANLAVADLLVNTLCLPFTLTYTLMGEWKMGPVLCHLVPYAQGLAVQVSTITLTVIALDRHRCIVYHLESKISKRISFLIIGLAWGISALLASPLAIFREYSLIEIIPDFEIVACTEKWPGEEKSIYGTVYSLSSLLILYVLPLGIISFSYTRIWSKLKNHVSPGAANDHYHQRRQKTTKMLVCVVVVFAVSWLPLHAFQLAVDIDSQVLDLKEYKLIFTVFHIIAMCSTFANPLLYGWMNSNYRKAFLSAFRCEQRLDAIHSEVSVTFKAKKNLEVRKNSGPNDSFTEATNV
The test can be described thus: Receptor Binding Assay (RBA) for Human Y2, [125I]-PYY displacement on hY2R/CHO membrane fraction. The note with it: IC50 of test compound/IC50 of PYY(3-36) (PYY(3-36) taken as 1). The gist of the method: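 Read-out is [125I]-PYY displacement from membranes of CHO/dhfr− cells stably transfected with human Y2R. Membranes were obtained by disrupting cells in a buffer of 10 mM NaHCO3, 5 mM EDTA and protease inhibitors.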

In test [2] the target is T1, human Y2 receptor. The test can be described thus: Human Y2 Receptor G Protein Binding Assay (GBA), [35S]GTPγS. Particulars: EC50 of test compound/EC50 of PYY(3-36) (PYY3-36 taken as 1), hY2R/CHO membrane fraction. The test is classed as biochemical. The procedure, abridged: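 Agonism measured as [35S]GTPγS binding, read by GF/C filtration and scintillation counting after 120 min at room temperature, using human Y2 membranes at 1 μg protein/mL in pH 7.4 Tris/MgCl2/NaCl/GDP buffer. Compound serially diluted 100 μM–1 nM; EC50 normalized to PYY(3-36) (ratio = compound/PYY).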

On to “Ac-[D-Pro24, Hse26, Cha27,36, Aib28,31]-PYY(23-36) (Ac-S[dP]R[hSer][Cha][Aib]NL[Aib]TRQR[Cha]-NH2; SMILES CC(=O)N[C@@H](CO)C(=O)N1CCC[C@@H]1C(=O)N[C@@H](CCCNC(=N)N)C(=O)N[C@@H](CCO)C(=O)N[C@@H](CC1CCCCC1)C(=O)NC(C)(C)C(=O)N[C@@H](CC(N)=O)C(=O)N[C@@H](CC(C)C)C(=O)NC(C)(C)C(=O)N[C@H](C(=O)N[C@@H](CCCNC(=N)N)C(=O)N[C@@H](CCC(N)=O)C(=O)N[C@@H](CCCNC(=N)N)C(=O)N[C@@H](CC1CCCCC1)C(N)=O)[C@@H](C)O) [compound No. 128]”, for which the “RBA IC50 Ratio” value in test [1] was 11. Besides, the “GBA EC50 Ratio” value in test [2] stood at 5.4.

Regarding “Ac-[D-Iva23, D-Pro24, Cha27,28,36, Aib31]-PYY(23-36) (Ac-[dIva][dP]RH[Cha][Cha]NL[Aib]TRQR[Cha]-NH2; SMILES CC[C@@](C)(NC(C)=O)C(=O)N1CCC[C@@H]1C(=O)N[C@@H](CCCNC(=N)N)C(=O)N[C@@H](Cc1c[nH]cn1)C(=O)N[C@@H](CC1CCCCC1)C(=O)N[C@@H](CC1CCCCC1)C(=O)N[C@@H](CC(N)=O)C(=O)N[C@@H](CC(C)C)C(=O)NC(C)(C)C(=O)N[C@H](C(=O)N[C@@H](CCCNC(=N)N)C(=O)N[C@@H](CCC(N)=O)C(=O)N[C@@H](CCCNC(=N)N)C(=O)N[C@@H](CC1CCCCC1)C(N)=O)[C@@H](C)O) [compound No. 183]”, the “RBA IC50 Ratio” value in test [1] turned out to be 20. In test [2], the “GBA EC50 Ratio” value turned out to be 31.

“Ac-[Gln23, D-Pro24, Pya(4)26, Cha27,36, Aib28,31, Lys30]-PYY(23-36) (Ac-Q[dP]R[4Pal][Cha][Aib]NK[Aib]TRQR[Cha]-NH2; SMILES CC(=O)N[C@@H](CCC(N)=O)C(=O)N1CCC[C@@H]1C(=O)N[C@@H](CCCNC(=N)N)C(=O)N[C@@H](Cc1ccncc1)C(=O)N[C@@H](CC1CCCCC1)C(=O)NC(C)(C)C(=O)N[C@@H](CC(N)=O)C(=O)N[C@@H](CCCCN)C(=O)NC(C)(C)C(=O)N[C@H](C(=O)N[C@@H](CCCNC(=N)N)C(=O)N[C@@H](CCC(N)=O)C(=O)N[C@@H](CCCNC(=N)N)C(=O)N[C@@H](CC1CCCCC1)C(N)=O)[C@@H](C)O) [compound No. 210]”: the “RBA IC50 Ratio” value in test [1] came to 1.3. Further, the “GBA EC50 Ratio” value in test [2] stood at 0.9.

Regarding “Ac-[Glu23, D-Pro24, Nle25, Pya(4)26, Cha27,36, Aib28,31, Lys30]-PYY(23-36) (Ac-E[dP][Nle][4Pal][Cha][Aib]NK[Aib]TRQR[Cha]-NH2; SMILES CCCC[C@H](NC(=O)[C@H]1CCCN1C(=O)[C@H](CCC(=O)O)NC(C)=O)C(=O)N[C@@H](Cc1ccncc1)C(=O)N[C@@H](CC1CCCCC1)C(=O)NC(C)(C)C(=O)N[C@@H](CC(N)=O)C(=O)N[C@@H](CCCCN)C(=O)NC(C)(C)C(=O)N[C@H](C(=O)N[C@@H](CCCNC(=N)N)C(=O)N[C@@H](CCC(N)=O)C(=O)N[C@@H](CCCNC(=N)N)C(=O)N[C@@H](CC1CCCCC1)C(N)=O)[C@@H](C)O) [compound No. 227]”, in test [1], the “RBA IC50 Ratio” value came out at 7.5. The “GBA EC50 Ratio” value in test [2] is given as 6.9.

As to “[(PEG2)23, D-Pro24, Cha27,28,36, Aib31]-PYY(23-36) ([PEG2′][dP]RH[Cha][Cha]NL[Aib]TRQR[Cha]-NH2) [compound No. 118]”, the “RBA IC50 Ratio” value in test [1] is 0.9. The “GBA EC50 Ratio” value in test [2] is reported as 0.9.

As to “Benzoyl-[His27, Cha28,36, Aib31]-PYY(25-36) (Bz-RHH[Cha]NL[Aib]TRQR[Cha]-NH2; SMILES CC(C)C[C@H](NC(=O)[C@H](CC(N)=O)NC(=O)[C@H](CC1CCCCC1)NC(=O)[C@H](Cc1c[nH]cn1)NC(=O)[C@H](Cc1c[nH]cn1)NC(=O)[C@H](CCCNC(=N)N)NC(=O)c1ccccc1)C(=O)NC(C)(C)C(=O)N[C@H](C(=O)N[C@@H](CCCNC(=N)N)C(=O)N[C@@H](CCC(N)=O)C(=O)N[C@@H](CCCNC(=N)N)C(=O)N[C@@H](CC1CCCCC1)C(N)=O)[C@@H](C)O) [compound No. 104]”, the “RBA IC50 Ratio” value in test [1] amounted to 5.6. Moreover, in test [2], the “GBA EC50 Ratio” value came to 4.3.

Turning to “Isobutanoyl-[Abu26, Cha27,28,36, Pya(3)31]-PYY(25-36) (Isobutyryl-R[Abu][Cha][Cha]NL[3Pal]TRQR[Cha]-NH2; SMILES CC[C@H](NC(=O)[C@H](CCCNC(=N)N)NC(=O)C(C)C)C(=O)N[C@@H](CC1CCCCC1)C(=O)N[C@@H](CC1CCCCC1)C(=O)N[C@@H](CC(N)=O)C(=O)N[C@@H](CC(C)C)C(=O)N[C@@H](Cc1cccnc1)C(=O)N[C@H](C(=O)N[C@@H](CCCNC(=N)N)C(=O)N[C@@H](CCC(N)=O)C(=O)N[C@@H](CCCNC(=N)N)C(=O)N[C@@H](CC1CCCCC1)C(N)=O)[C@@H](C)O) [compound No. 82]”, the “RBA IC50 Ratio” value in test [1] is on record as 25. For the same substance, the “GBA EC50 Ratio” value in test [2] is given as 19.

As for “Ac-[β-HOAla24, Pya(4)26, Cha27,36, Aib28,31, Lys30]-PYY(23-36) [compound No. 244] (Ac-S[βHOAla]R[4Pal][Cha][Aib]NK[Aib]TRQR[Cha]-NH2; also: former peak, β-HOAla D/L configuration not assigned)”, the “RBA IC50 Ratio” value in test [1] is listed as 2.4. Further, in test [2], the “GBA EC50 Ratio” value was 2.8.

Regarding “Isobutanoyl-[Glu23, D-Pro24, Pya(4)26, Cha27,36, Aib28,31, Lys30]-PYY(23-36) (Isobutyryl-E[dP]R[4Pal][Cha][Aib]NK[Aib]TRQR[Cha]-NH2; SMILES CC(C)C(=O)N[C@@H](CCC(=O)O)C(=O)N1CCC[C@@H]1C(=O)N[C@@H](CCCNC(=N)N)C(=O)N[C@@H](Cc1ccncc1)C(=O)N[C@@H](CC1CCCCC1)C(=O)NC(C)(C)C(=O)N[C@@H](CC(N)=O)C(=O)N[C@@H](CCCCN)C(=O)NC(C)(C)C(=O)N[C@H](C(=O)N[C@@H](CCCNC(=N)N)C(=O)N[C@@H](CCC(N)=O)C(=O)N[C@@H](CCCNC(=N)N)C(=O)N[C@@H](CC1CCCCC1)C(N)=O)[C@@H](C)O) [compound No. 214]”, the “RBA IC50 Ratio” value in test [1] came to 1.9. Also, in test [2], the “GBA EC50 Ratio” value amounted to 2.0.

Consider “Ac-[D-Pic(2)24, Cha27,28,36, Aib31]-PYY(23-36) (Ac-S[dPip]RH[Cha][Cha]NL[Aib]TRQR[Cha]-NH2; SMILES CC(=O)N[C@@H](CO)C(=O)N1CCCC[C@@H]1C(=O)N[C@@H](CCCNC(=N)N)C(=O)N[C@@H](Cc1c[nH]cn1)C(=O)N[C@@H](CC1CCCCC1)C(=O)N[C@@H](CC1CCCCC1)C(=O)N[C@@H](CC(N)=O)C(=O)N[C@@H](CC(C)C)C(=O)NC(C)(C)C(=O)N[C@H](C(=O)N[C@@H](CCCNC(=N)N)C(=O)N[C@@H](CCC(N)=O)C(=O)N[C@@H](CCCNC(=N)N)C(=O)N[C@@H](CC1CCCCC1)C(N)=O)[C@@H](C)O) [compound No. 119]”, for which, in test [1], the “RBA IC50 Ratio” value was 9.9. Moreover, the “GBA EC50 Ratio” value in test [2] stood at 5.8.

For the substance “4-Guanidinomethylbenzoyl-[Nle25, Cha27,28,31,36, Arg30]-PYY(25-36) ({4‑Guanidinomethylbenzoyl}-[Nle]H[Cha][Cha]NR[Cha]TRQR[Cha]-NH2; SMILES CCCC[C@H](NC(=O)c1ccc(CNC(=N)N)cc1)C(=O)N[C@@H](Cc1c[nH]cn1)C(=O)N[C@@H](CC1CCCCC1)C(=O)N[C@@H](CC1CCCCC1)C(=O)N[C@@H](CC(N)=O)C(=O)N[C@@H](CCCNC(=N)N)C(=O)N[C@@H](CC1CCCCC1)C(=O)N[C@H](C(=O)N[C@@H](CCCNC(=N)N)C(=O)N[C@@H](CCC(N)=O)C(=O)N[C@@H](CCCNC(=N)N)C(=O)N[C@@H](CC1CCCCC1)C(N)=O)[C@@H](C)O) [compound No. 76]”, the “RBA IC50 Ratio” value in test [1] turned out to be 7.2. Besides, the “GBA EC50 Ratio” value in test [2] is 4.5.

On to “Cyclohexanecarbonyl-[Cha27,36, Ala(cPr)28, Aib31]-PYY(25-36) (Cyclohexanecarbonyl-RH[Cha][Ala(cPr)]NL[Aib]TRQR[Cha]-NH2; SMILES CC(C)C[C@H](NC(=O)[C@H](CC(N)=O)NC(=O)[C@H](CC1CC1)NC(=O)[C@H](CC1CCCCC1)NC(=O)[C@H](Cc1c[nH]cn1)NC(=O)[C@H](CCCNC(=N)N)NC(=O)C1CCCCC1)C(=O)NC(C)(C)C(=O)N[C@H](C(=O)N[C@@H](CCCNC(=N)N)C(=O)N[C@@H](CCC(N)=O)C(=O)N[C@@H](CCCNC(=N)N)C(=O)N[C@@H](CC1CCCCC1)C(N)=O)[C@@H](C)O) [compound No. 78]”, for which the “RBA IC50 Ratio” value in test [1] turned out to be 15. Moreover, the “GBA EC50 Ratio” value in test [2] was determined as 23.

With “[D-pGlu24, Pya(4)26, Cha27,36, Aib28,31, Lys30]-PYY(24-36) ([d(pGlu)]R[4Pal][Cha][Aib]NK[Aib]TRQR[Cha]-NH2; SMILES C[C@@H](O)[C@H](NC(=O)C(C)(C)NC(=O)[C@H](CCCCN)NC(=O)[C@H](CC(N)=O)NC(=O)C(C)(C)NC(=O)[C@H](CC1CCCCC1)NC(=O)[C@H](Cc1ccncc1)NC(=O)[C@H](CCCNC(=N)N)NC(=O)[C@H]1CCC(=O)N1)C(=O)N[C@@H](CCCNC(=N)N)C(=O)N[C@@H](CCC(N)=O)C(=O)N[C@@H](CCCNC(=N)N)C(=O)N[C@@H](CC1CCCCC1)C(N)=O) [compound No. 250]”, in test [1], the “RBA IC50 Ratio” value was found to be 2. Besides, the “GBA EC50 Ratio” value in test [2] amounted to 1.1.
